Data: patent publication US20110189234A1

Biological target: Tail-T(ii)-MH chimeric adenovirus spike protein (adenovirus serotype 5; reovirus type 3 Dearing) (UniProt P11818)

Substance: anti-His antibody (penta-His MAb; Qiagen)
- transduction of 293HissFv.rec cells (luciferase activity): 90%
